Measurements published in patent US20190010205A1 (JCR PHARMACEUTICALS, published 2019).

Tests used:
Test in all cases: cell-based or functional assay
[1] = target: T1, human GH receptor (hGHR) expressed on mouse BaF3 cells (BaF3/hGHR cells) (human, UniProt P10912 19-638)
T1 sequence (looked up): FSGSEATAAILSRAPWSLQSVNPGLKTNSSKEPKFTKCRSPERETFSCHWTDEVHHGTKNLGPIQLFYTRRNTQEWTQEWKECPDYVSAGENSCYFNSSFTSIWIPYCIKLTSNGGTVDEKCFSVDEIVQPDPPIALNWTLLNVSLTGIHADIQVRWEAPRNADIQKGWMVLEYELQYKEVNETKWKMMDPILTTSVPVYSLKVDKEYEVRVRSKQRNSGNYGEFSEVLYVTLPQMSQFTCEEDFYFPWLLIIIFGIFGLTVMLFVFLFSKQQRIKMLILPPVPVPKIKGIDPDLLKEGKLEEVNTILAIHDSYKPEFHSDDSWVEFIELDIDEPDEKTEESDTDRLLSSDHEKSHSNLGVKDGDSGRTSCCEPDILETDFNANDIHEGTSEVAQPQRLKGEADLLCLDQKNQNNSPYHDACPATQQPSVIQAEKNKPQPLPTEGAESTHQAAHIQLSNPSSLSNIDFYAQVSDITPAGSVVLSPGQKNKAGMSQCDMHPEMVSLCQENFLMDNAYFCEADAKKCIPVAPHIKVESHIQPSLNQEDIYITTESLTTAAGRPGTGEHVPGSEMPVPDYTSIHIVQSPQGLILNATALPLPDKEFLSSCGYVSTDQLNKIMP

[2] = target: T2, human prolactin receptor (hPRLR) expressed on mouse BaF3 cells (BaF3/hPRLR cells) (human, UniProt P16471 25-622)
T2 sequence (looked up): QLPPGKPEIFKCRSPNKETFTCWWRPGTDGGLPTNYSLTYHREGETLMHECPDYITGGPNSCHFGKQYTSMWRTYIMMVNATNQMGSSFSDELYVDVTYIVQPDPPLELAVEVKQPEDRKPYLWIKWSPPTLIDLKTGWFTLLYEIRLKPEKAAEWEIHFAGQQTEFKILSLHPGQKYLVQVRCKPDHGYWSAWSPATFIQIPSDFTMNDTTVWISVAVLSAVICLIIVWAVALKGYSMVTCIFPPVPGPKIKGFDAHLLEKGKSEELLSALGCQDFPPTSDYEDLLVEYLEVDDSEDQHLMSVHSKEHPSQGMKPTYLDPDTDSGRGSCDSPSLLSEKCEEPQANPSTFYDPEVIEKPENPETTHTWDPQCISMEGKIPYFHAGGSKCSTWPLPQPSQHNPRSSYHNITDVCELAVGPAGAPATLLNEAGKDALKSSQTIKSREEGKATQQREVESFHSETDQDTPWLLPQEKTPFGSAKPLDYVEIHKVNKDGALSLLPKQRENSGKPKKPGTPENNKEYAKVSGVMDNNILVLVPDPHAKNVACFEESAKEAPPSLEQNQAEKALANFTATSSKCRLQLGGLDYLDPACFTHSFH

HSA-20K hGH = HSA-20K hGH (human)
HSA-[linker]-20K hGH = HSA-[linker]-20K hGH (human)

B1: 20K human growth hormone (ATGen Inc.) (ligand)
chain: FPTIPLSRLFDNAMLRAHRLHQLAFDTYQEFNPQTSLCFSESIPTPSNREETQQKSNLELLRISLLLIQSWLEPVQFLRSVFANSLVYGASDSNVYDLLKDLEEGIQTLMGRLEDGSPRTGQIFKQTYSKFDTNSHNDDALLKNYGLLYCFRKDMDKVETFLRIVQCRSVEGSCGF
With B1 the “EC50 (row printed as ED50), cell growth activity using BaF3/hGHR cells” value [1] was 0.00084 nM and the “EC50 (row printed as ED50), prolactin-like activity using BaF3/hPRLR cells” value [2] was 0.27 nM.

B2: recombinant human growth hormone binding protein (rhGHBP, BioVision Inc.) (receptor, UniProt P10912 19-264, looked up)
chain: FSGSEATAAILSRAPWSLQSVNPGLKTNSSKEPKFTKCRSPERETFSCHWTDEVHHGTKNLGPIQLFYTRRNTQEWTQEWKECPDYVSAGENSCYFNSSFTSIWIPYCIKLTSNGGTVDEKCFSVDEIVQPDPPIALNWTLLNVSLTGIHADIQVRWEAPRNADIQKGWMVLEYELQYKEVNETKWKMMDPILTTSVPVYSLKVDKEYEVRVRSKQRNSGNYGEFSEVLYVTLPQMSQFTCEEDFY
With B2 the “IC50 of hGHBP against cell growth activity on BaF3/hGHR cells (by extrapolation)” value (HSA-20K hGH) was 250 to 350 nM and the “IC50 of hGHBP against cell growth activity on BaF3/hGHR cells (by extrapolation)” value (HSA-[linker]-20K hGH) was 250 to 350 nM.
